The text below walks through data of KR20190016466A.

The target of assay [1] is human FcRn (hFcRn) (human) (UniProt P55899). Briefly: ELISA, antibody coated, hFcRn added, anti-6-His detection, pH 7.4; reference WT. On the technique in general: In an ELISA, binding on a coated surface is turned into a signal by an enzyme label.
The target is the same in assay [2]. Put plainly: SPR (XPR36), hFcRn on chip, antibody flowed, pH 7.4.
Assay [3] has the same target. Put plainly: ELISA, antibody coated, hFcRn added, anti-6-His detection, pH 6.0; reference WT.
Assay [4] shares this target. Briefly: SPR (XPR36), hFcRn on chip, antibody flowed, pH 6.0.

UniProt P55899, sequence (P55899 24-297 limits assumed, form in doubt): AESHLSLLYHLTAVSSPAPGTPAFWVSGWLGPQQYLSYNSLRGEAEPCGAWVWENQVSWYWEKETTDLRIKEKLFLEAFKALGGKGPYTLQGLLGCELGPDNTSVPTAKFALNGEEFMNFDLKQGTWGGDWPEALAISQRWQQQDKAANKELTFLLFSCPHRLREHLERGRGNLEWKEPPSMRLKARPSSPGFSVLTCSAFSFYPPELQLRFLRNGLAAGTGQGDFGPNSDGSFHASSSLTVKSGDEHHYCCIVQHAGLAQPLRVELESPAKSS

On to HN (H462K/N463F) 변이 SO57 항체 (antibody), for which the figures for the fold increase of affinity over WT in assay [1] and in assay [3] were 17 배 (fold) and 18 배 (fold), respectively. For the same substance, the RU was 100 RU in assay [2] and 195 RU in assay [4].
On the same counts, the results for MN (M457L/N463S) 변이 SO57 항체 (antibody) are 15 배 (fold), 16 배 (fold), 70 RU and 180 RU.
For “MST (M281Y/S283T/T285E) 변이 SO57 항체 (antibody)”, the figures for the fold increase of affinity over WT in assay [1] and in assay [3] were 2 배 (fold) and 12 배 (fold), respectively. The RU in assay [2] was 20 RU; in assay [4] it was 140 RU.
